Columns and labels:
Details in all cases: PtdIns5P co-substrate, 10 mM MgCl2, pH 7.4, 30 °C, ATP 0–150 μM
[1] = substrate: Nc1ncnc2c1ncn2[C@@H]1O[C@H](COP(=O)(O)OP(=O)(O)OP(=O)(O)O)[C@@H](O)[C@H]1O; test: radiometric lipid kinase assay, TLC; format: biochemical, Homo sapiens
Text: radiometric lipid kinase assay, TLC on PI5P4Kβ

[2] = substrate: Nc1ncnc2c1ncn2[C@@H]1O[C@H](COP(=O)(O)OP(=O)(O)OP(=O)(O)O)[C@@H](O)[C@H]1O; test: radiometric lipid kinase assay, TLC; format: biochemical, Homo sapiens; remark: listed apart in the source
purified protein = substrate: Nc1ncnc2c1ncn2[C@@H]1O[C@H](COP(=O)(O)OP(=O)(O)OP(=O)(O)O)[C@@H](O)[C@H]1O; test: purified protein

B1: PI5P4Kβ (Homo sapiens) (protein)
chain: MSSNCTSTTAVAVAPLSASKTKTKKKHFVCQKVKLFRASEPILSVLMWGVNHTINELSNVPVPVMLMPDDFKAYSKIKVDNHLFNKENLPSRFKFKEYCPMVFRNLRERFGIDDQDYQNSVTRSAPINSDSQGRCGTRFLTTYDRRFVIKTVSSEDVAEMHNILKKYHQFIVECHGNTLLPQFLGMYRLTVDGVETYMVVTRNVFSHRLTVHRKYDLKGSTVAREASDKEKAKDLPTFKDNDFLNEGQKLHVGEESKKNFLEKLKRDVEFLAQLKIMDYSLLVGIHDVDRAEQEEMEVEERAEDEECENDGVGGNLLCSYGTPPDSPGNLLSFPRFFGPGEFDPSVDVYAMKSHESSPKKEVYFMAIIDILTPYDTKKKAAHAAKTVKHGAGAEISTVNPEQYSKRFNEFMSNILT
notes: full-length cDNA in pGEX6P, E. coli BL21(DE3), GST fusion or GST cleaved by PreScission; mutant PI5P4Kβ+ His-tagged; homodimer
Km [1]: 67.05 µM | kcat [1]: 9.55e-05 s⁻¹

B2: PI5P4Kα (Homo sapiens) (protein)
chain: MATPGNLGSSVLASKTKTKKKHFVAQKVKLFRASDPLLSVLMWGVNHSINELSHVQIPVMLMPDDFKAYSKIKVDNHLFNKENMPSHFKFKEYCPMVFRNLRERFGIDDQDFQNSLTRSAPLPNDSQARSGARFHTSYDKRYIIKTITSEDVAEMHNILKKYHQYIVECHGITLLPQFLGMYRLNVDGVEIYVIVTRNVFSHRLSVYRKYDLKGSTVAREASDKEKAKELPTLKDNDFINEGQKIYIDDNNKKVFLEKLKKDVEFLAQLKLMDYSLLVGIHDVERAEQEEVECEENDGEEEGESDGTHPVGTPPDSPGNTLNSSPPLAPGEFDPNIDVYGIKCHENSPRKEVYFMAIIDILTHYDAKKKAAHAAKTVKHGAGAEISTVNPEQYSKRFLDFIGHILT
notes: full-length cDNA in pGEX6P, E. coli BL21(DE3), GST fusion or GST cleaved by PreScission; His6-tagged version used as standard for kcat conversion; homodimer
Km [2]: 3.94 µM | kcat [2]: 0.0105 s⁻¹

B3: PI5P4Kγ (Homo sapiens) (protein)
chain: ASSSVPPATVSAATAGPGPGFGFASKTKKKHFVQQKVKVFRAADPLVGVFLWGVAHSINELSQVPPPVMLLPDDFKASSKIKVNNHLFHRENLPSHFKFKEYCPQVFRNLRDRFGIDDQDYLVSLTRNPPSESEGSDGRFLISYDRTLVIKEVSSEDIADMHSNLSNYHQYIVKCHGNTLLPQFLGMYRVSVDNEDSYMLVMRNMFSHRLPVHRKYDLKGSLVSREASDKEKVKELPTLKDMDFLNKNQKVYIGEEEKKIFLEKLKRDVEFLVQLKIMDYSLLLGIHDIIRGSEPEEEAPVREDESEVDGDCSLTGPPALVGSYGTSPEGIGGYIHSHRPLGPGEFESFIDVYAIRSAEGAPQKEVYFMGLIDILTQYDAKKKAAHAAKTVKHGAGAEISTVHPEQYAKRFLDFITNIFA
Km (purified protein): 94.18 µM | kcat (purified protein): 5.72e-06 s⁻¹
